Test results taken from patent publication US20150246949A1, “Desmoglein 2 (DSG2) Binding Proteins and Uses Therefor” (UNIVERSITY OF WASHINGTON THROUGH ITS CENTER FOR …, priority 2012, published 2015).

T1: human DSG2 on cells (HeLa cells; polarized T84 cells) (human, UniProt Q14126 50-1118)
T1 construct: whole, on cells; also called HeLa cells, which express DSG2
T1 sequence: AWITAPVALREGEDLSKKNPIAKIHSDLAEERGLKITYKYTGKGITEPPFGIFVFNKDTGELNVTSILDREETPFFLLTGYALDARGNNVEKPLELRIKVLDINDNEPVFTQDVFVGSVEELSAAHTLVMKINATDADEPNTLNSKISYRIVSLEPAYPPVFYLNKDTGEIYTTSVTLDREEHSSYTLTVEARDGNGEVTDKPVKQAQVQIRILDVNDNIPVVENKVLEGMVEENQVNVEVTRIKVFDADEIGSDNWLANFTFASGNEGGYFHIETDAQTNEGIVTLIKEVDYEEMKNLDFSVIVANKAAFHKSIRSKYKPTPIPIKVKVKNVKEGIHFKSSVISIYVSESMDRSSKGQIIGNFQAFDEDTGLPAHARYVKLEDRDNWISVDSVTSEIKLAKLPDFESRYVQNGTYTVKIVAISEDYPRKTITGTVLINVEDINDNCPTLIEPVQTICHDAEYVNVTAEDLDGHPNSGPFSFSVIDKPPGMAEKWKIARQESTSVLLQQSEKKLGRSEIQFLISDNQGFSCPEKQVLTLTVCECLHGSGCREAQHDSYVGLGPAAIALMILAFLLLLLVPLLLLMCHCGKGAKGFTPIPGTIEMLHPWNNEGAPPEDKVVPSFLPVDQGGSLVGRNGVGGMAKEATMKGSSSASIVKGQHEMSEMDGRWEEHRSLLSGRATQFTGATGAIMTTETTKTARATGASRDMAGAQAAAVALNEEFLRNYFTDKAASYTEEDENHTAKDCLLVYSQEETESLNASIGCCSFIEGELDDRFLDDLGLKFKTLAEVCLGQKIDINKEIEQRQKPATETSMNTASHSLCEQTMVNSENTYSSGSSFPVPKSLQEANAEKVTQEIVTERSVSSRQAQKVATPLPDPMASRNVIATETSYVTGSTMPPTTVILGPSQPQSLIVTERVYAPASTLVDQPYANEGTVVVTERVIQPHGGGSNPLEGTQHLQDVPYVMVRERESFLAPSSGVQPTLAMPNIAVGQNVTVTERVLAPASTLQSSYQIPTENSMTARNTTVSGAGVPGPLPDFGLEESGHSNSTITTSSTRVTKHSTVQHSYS

T2: Recombinant human DSG2 protein (Leinco Technologies) (human, UniProt Q14126 50-609)
T2 construct: also called soluble DSG2; soluble recombinant DSG2
T2 sequence: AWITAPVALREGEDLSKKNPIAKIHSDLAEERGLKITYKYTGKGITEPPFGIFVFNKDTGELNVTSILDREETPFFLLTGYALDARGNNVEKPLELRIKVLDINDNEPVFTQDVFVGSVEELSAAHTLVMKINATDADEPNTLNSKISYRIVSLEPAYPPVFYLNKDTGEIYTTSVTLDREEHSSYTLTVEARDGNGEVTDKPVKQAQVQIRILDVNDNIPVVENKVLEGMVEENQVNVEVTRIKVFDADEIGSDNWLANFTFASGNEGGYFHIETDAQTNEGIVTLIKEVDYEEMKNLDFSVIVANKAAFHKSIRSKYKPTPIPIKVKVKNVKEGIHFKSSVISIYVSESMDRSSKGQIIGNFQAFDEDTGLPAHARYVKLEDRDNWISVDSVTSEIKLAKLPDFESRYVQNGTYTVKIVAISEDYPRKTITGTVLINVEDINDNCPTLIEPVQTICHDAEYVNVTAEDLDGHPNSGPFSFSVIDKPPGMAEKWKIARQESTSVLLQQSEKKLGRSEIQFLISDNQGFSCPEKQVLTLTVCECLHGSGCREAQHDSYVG


Key:
[1] = target: T1, human DSG2 on cells (HeLa cells; …); test: attachment of 3H-labelled Ad3 virus (competitor) to HeLa cells pre-incubated with the dimeric knob
[2] = target: T2, Recombinant human DSG2 protein (Leinco …); test: Western blot of dimeric knob (trimer band), soluble recombinant DSG2 as probe, anti-DSG2 mAb
[3] = target: T1, human DSG2 on cells (HeLa cells; …); test: cell-based or functional assay
[4] = target: T2, Recombinant human DSG2 protein (Leinco …); test: SPR (BIAcore 3000), DSG2 immobilised on the sensor chip, knobs injected at 2.5 to 10 µg/ml, BIAeval

Binder	Inhibition of attachment in the presence of dimeric knob (JO-1 = 100%) [1]	Western blot residual DSG2 binding (wtAd3 knob = 100%) [2]	Inhibition of infection in the presence of dimeric knob (JO-1 = 100%) [3]	Kd [4]	koff [4]	kon [4]
dimeric Ad3 fiber knob mutant D261N, L296R (designed binder, also called D261, L296R; combination of D261N and L296R) MKVSALKEKVSALKEKVSALKEKVSALKEKVSALKEGSGGGSGGGSGGGSNSIALKNNTLWTGPKPEANCIIEYGKQNPDSKLTLILVKNGGIVNGYVTLMGASDYVNTLFKNKNVSINVELYFDATGHILPDSSSLKTDLELKYKQTADFSARGFMPSTTAYPFVLPNAGTHNENYIFGQCYYKASNGALFPLEVTVMLNKRLPDSRTSYVMTFLWSLNAGRAPETTQATLITSPFTFSYIREDD	20.1%	7%	1.5%	–	–	–
dimeric Ad3 fiber knob mutant E299V (designed binder) MKVSALKEKVSALKEKVSALKEKVSALKEKVSALKEGSGGGSGGGSGGGSNSIALKNNTLWTGPKPEANCIIEYGKQNPDSKLTLILVKNGGIVNGYVTLMGASDYVNTLFKNKNVSINVELYFDATGHILPDSSSLKTDLELKYKQTADFSARGFMPSTTAYPFVLPNAGTHNENYIFGQCYYKASDGALFPLEVTVMLNKRLPDSRTSYVMTFLWSLNAGLAPVTTQATLITSPFTFSYIREDD	97.3%	20%	50.7%	–	–	–
dimeric Ad3 fiber knob mutant L296R (designed binder) MKVSALKEKVSALKEKVSALKEKVSALKEKVSALKEGSGGGSGGGSGGGSNSIALKNNTLWTGPKPEANCIIEYGKQNPDSKLTLILVKNGGIVNGYVTLMGASDYVNTLFKNKNVSINVELYFDATGHILPDSSSLKTDLELKYKQTADFSARGFMPSTTAYPFVLPNAGTHNENYIFGQCYYKASDGALFPLEVTVMLNKRLPDSRTSYVMTFLWSLNAGRAPETTQATLITSPFTFSYIREDD	73.7%	3.6%	5.1%	–	–	–
dimeric Ad3 fiber knob mutant N186D (designed binder) MKVSALKEKVSALKEKVSALKEKVSALKEKVSALKEGSGGGSGGGSGGGSNSIALKNNTLWTGPKPEANCIIEYGKQNPDSKLTLILVKNGGIVNGYVTLMGASDYVNTLFKDKNVSINVELYFDATGHILPDSSSLKTDLELKYKQTADFSARGFMPSTTAYPFVLPNAGTHNENYIFGQCYYKASDGALFPLEVTVMLNKRLPDSRTSYVMTFLWSLNAGLAPETTQATLITSPFTFSYIREDD	56.5%	5.3%	32.7%	–	–	–
dimeric Ad3 fiber knob mutant N186D, D261N (designed binder, also called combination of N186D and D261N) MKVSALKEKVSALKEKVSALKEKVSALKEKVSALKEGSGGGSGGGSGGGSNSIALKNNTLWTGPKPEANCIIEYGKQNPDSKLTLILVKNGGIVNGYVTLMGASDYVNTLFKDKNVSINVELYFDATGHILPDSSSLKTDLELKYKQTADFSARGFMPSTTAYPFVLPNAGTHNENYIFGQCYYKASNGALFPLEVTVMLNKRLPDSRTSYVMTFLWSLNAGLAPETTQATLITSPFTFSYIREDD	23.5%	7%	5.2%	–	–	–
dimeric Ad3 fiber knob mutant N186D, D261N, L296R (designed binder, also called mutant with mutations in all three areas (N185, D261, L296)) MKVSALKEKVSALKEKVSALKEKVSALKEKVSALKEGSGGGSGGGSGGGSNSIALKNNTLWTGPKPEANCIIEYGKQNPDSKLTLILVKNGGIVNGYVTLMGASDYVNTLFKDKNVSINVELYFDATGHILPDSSSLKTDLELKYKQTADFSARGFMPSTTAYPFVLPNAGTHNENYIFGQCYYKASNGALFPLEVTVMLNKRLPDSRTSYVMTFLWSLNAGRAPETTQATLITSPFTFSYIREDD	–	0%	–	–	–	–
dimeric Ad3 fiber knob mutant S190P (designed binder, also called 5190P [sic]) MKVSALKEKVSALKEKVSALKEKVSALKEKVSALKEGSGGGSGGGSGGGSNSIALKNNTLWTGPKPEANCIIEYGKQNPDSKLTLILVKNGGIVNGYVTLMGASDYVNTLFKNKNVPINVELYFDATGHILPDSSSLKTDLELKYKQTADFSARGFMPSTTAYPFVLPNAGTHNENYIFGQCYYKASDGALFPLEVTVMLNKRLPDSRTSYVMTFLWSLNAGLAPETTQATLITSPFTFSYIREDD	73.4%	7.1%	30.9%	–	–	–
dimeric Ad3 fiber knob mutant V189G (designed binder) MKVSALKEKVSALKEKVSALKEKVSALKEKVSALKEGSGGGSGGGSGGGSNSIALKNNTLWTGPKPEANCIIEYGKQNPDSKLTLILVKNGGIVNGYVTLMGASDYVNTLFKNKNGSINVELYFDATGHILPDSSSLKTDLELKYKQTADFSARGFMPSTTAYPFVLPNAGTHNENYIFGQCYYKASDGALFPLEVTVMLNKRLPDSRTSYVMTFLWSLNAGLAPETTQATLITSPFTFSYIREDD	81%	14%	54%	–	–	–
Ad3 fiber knob mutant E248G+K258E without dimerization domain (ligand, range 108-319; not shown: N-terminal 6-His tag of pQE30 and linker) NKLCSKLGNGLTFDSSNSIALKNNTLWTGPKPEANCIIEYGKQNPDSKLTLILVKNGGIVNGYVTLMGASDYVNTLFKNKNVSINVELYFDATGHILPDSSSLKTDLELKYKQTADFSARGFMPSTTAYPFVLPNAGTHNGNYIFGQCYYEASDGALFPLEVTVMLNKRLPDSRTSYVMTFLWSLNAGLAPETTQATLITSPFTFSYIREDD	–	–	–	49.4 nM	0.00147 s⁻¹	29800 M⁻¹ s⁻¹
Ad3 fiber knob mutant F224L without dimerization domain (ligand, range 108-319; not shown: N-terminal 6-His tag of pQE30 and linker) NKLCSKLGNGLTFDSSNSIALKNNTLWTGPKPEANCIIEYGKQNPDSKLTLILVKNGGIVNGYVTLMGASDYVNTLFKNKNVSINVELYFDATGHILPDSSSLKTDLELKYKQTADLSARGFMPSTTAYPFVLPNAGTHNENYIFGQCYYKASDGALFPLEVTVMLNKRLPDSRTSYVMTFLWSLNAGLAPETTQATLITSPFTFSYIREDD	–	–	–	78.7 nM	0.00269 s⁻¹	34200 M⁻¹ s⁻¹
Ad3 fiber knob mutant K217E+F224S without dimerization domain (ligand, range 108-319; also called K217E/F224S mutant (non-dimerized form); not shown: N-terminal 6-His tag of pQE30 and linker) NKLCSKLGNGLTFDSSNSIALKNNTLWTGPKPEANCIIEYGKQNPDSKLTLILVKNGGIVNGYVTLMGASDYVNTLFKNKNVSINVELYFDATGHILPDSSSLKTDLELEYKQTADSSARGFMPSTTAYPFVLPNAGTHNENYIFGQCYYKASDGALFPLEVTVMLNKRLPDSRTSYVMTFLWSLNAGLAPETTQATLITSPFTFSYIREDD	–	–	–	53.9 nM	0.00317 s⁻¹	58800 M⁻¹ s⁻¹
Ad3 fiber knob mutant N293S without dimerization domain (ligand, range 108-319; also called N293S/noDD; not shown: N-terminal 6-His tag of pQE30 and linker) NKLCSKLGNGLTFDSSNSIALKNNTLWTGPKPEANCIIEYGKQNPDSKLTLILVKNGGIVNGYVTLMGASDYVNTLFKNKNVSINVELYFDATGHILPDSSSLKTDLELKYKQTADFSARGFMPSTTAYPFVLPNAGTHNENYIFGQCYYKASDGALFPLEVTVMLNKRLPDSRTSYVMTFLWSLSAGLAPETTQATLITSPFTFSYIREDD	–	–	–	73.2 nM	8.7e-05 s⁻¹	1190 M⁻¹ s⁻¹
